Results as given in article PMC4453223.

Target: microtubule (MT) filaments

Sequence of DmK-4AA (P17210 other isoform, or with tags, fused parts or gaps): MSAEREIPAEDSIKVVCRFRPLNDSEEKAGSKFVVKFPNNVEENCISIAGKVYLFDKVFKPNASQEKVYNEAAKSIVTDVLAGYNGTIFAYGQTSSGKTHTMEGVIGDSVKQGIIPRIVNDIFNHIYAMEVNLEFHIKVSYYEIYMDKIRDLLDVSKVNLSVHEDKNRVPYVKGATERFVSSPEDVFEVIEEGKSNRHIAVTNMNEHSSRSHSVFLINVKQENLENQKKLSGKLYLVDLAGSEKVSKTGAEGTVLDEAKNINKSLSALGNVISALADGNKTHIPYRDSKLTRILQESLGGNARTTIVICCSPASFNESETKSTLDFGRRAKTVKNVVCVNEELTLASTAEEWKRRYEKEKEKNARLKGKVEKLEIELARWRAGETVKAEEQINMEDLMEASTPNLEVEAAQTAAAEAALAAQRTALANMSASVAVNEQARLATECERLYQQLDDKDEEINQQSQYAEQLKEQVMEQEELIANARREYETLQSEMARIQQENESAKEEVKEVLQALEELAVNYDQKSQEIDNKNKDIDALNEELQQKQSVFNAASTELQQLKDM

half-site mantADP release (stopped flow): share of motors releasing mantADP from both heads upon the addition of MTs: 16%
Substance: DmK-4AA (from UniProt P17210 1-559) (domain or fragment)
